Changes are numbered by the printed parent chain.
B1: IgG-like format No. 10 (DOM15-26 VH on CH / DOM16-52 VH on CK) (bispecific antibody, V domains shown)
V domain 1: EVQLLESGGGLVQPGGSLRLSCAASGFTFGAYPMMWVRQAPGKGLEWVSEISPSGSYTYYADSVKGRFTISRDNSKNTLYLQMNSLRAEDTAVYYCAKDPRKFDYWGQGTLVTVSS
V domain 2: EVQLLESGGGLVQPGGSLRLSCAASGFTFAEQPMTWARQAPGKGLEWVSSISSFGDLTYYADSVKGRFTISRDNSKNTLYLQMNSLRAEDTAVYYCAKGVYRISRFDYWGQGTLVTVSS
notes: IgG-like format; also called IgG 10
B2: IgG-like format No. 19 (DOM15-26 VH on CH / Dummy VK on CK) (antibody, V domains shown, not shown: a dimerising Fc or GST)
VH: B1 V domain 1
notes: IgG-like format; also called IgG 19
B3: TAR15-5 (other)
VH: EVQLLESGGGLVQPGGSLRLSCAASGFTFRLYDMVWVRQAPGKGLEWVSYISSGGSGTYYADSVKGRFTISRDNSKNTLYLQMNSLRAEDTAVYYCAKAGGRASFDYWGQGTLVTVSS
notes: Human dAb, VH single variable domain
B4: TAR15-27 (other)
VH: EVQLLESGGGLVQPGGSLRLSCAASGFTFQFYKMGWVRQAPGKGLEWVSSISSVGDATYYADSVKGRFTISRDNSKNTLYLQMNSLRAEDTAVYYCAKMGGGPPTYVVYFDYWGQGTLVTVSS
notes: as for B3
B5: TAR15-30 (other)
VH: EVQLLESGGGLVQPGGSLRLSCAASGFTFSDYAMYWVRQAPGKGLEWVSSITARGFITYYADSVKGRFTISRDNSKNTLYLQMNSLRAEDTAVYYCAKSGFPHKSGSNYFDYWGQGTLVTVSS
notes: as for B3
B6: TAR15-7 (other)
VH: EVQLLESGGGLVQPGGSLRLSCAASGFTFNKYPMMWVRQAPGKGLEWVSEISPSGQDTYYADSVKGRFTISRDNSKNTLYLQMNSLRAEDTAVYYCAKNPQILSNFDYWGQGTLVTVSS
notes: as for B3
B7: TAR15-24 (other)
VH: EVQLLESGGGLVQPGGSLRLSCAASGFTFTGYEMGWVRQAPGKGLEWVSYISRGGRWTYYADSVKGRFTISRDNSKNTLYLQMNSLRAEDTAVYYCAKSDTMFDYWGQGTLVTVSS
notes: as for B3
B8: TAR15-25 (other)
VH: B7 VH with T30S, G31A, Y50F, R53G, S99Y, D100S, T101E, M102D
notes: as for B3
B9: TAR15-23 (other)
VH: EVQLLESGGGLVQPGGSLRLSCAASGFTFKAYEMGWVRQAPGKGLEWVSGISPNGGWTYYADSVKGRFTISRDNSKNTLYLQMNSLRAEDTAVYYCAKESISPTPLGFDYWGQGTLVTVSS
notes: as for B3
B10: TAR15-6 (other)
VH: EVQLLESGGGLVQPGGSLRLSCAASGFTFHLYDMMWVRQAPGKGLEWVSFIGGDGLNTYYADSVKGRFTISRDNSKNTLYLQMNSLRAEDTAVYYCAKAGTQFDYWGQGTLVTVSS
notes: as for B3
B11: TAR15-8 (other)
VH: EVQLLESGGGLVQPGGSLRLSCAASGFTFQWYPMWWVRQAPGKGLEWVSLIEGQGDRTYYADSVKGRFTISRDNSKNTLYLQMNSLRAEDTAVYYCAKAGDRTAGSRGNSFDYWGQGTLVTVSS
notes: as for B3
B12: TAR15-29 (other)
VH: EVQLLESGGGLVQPGGSLRLSCAASGFTFGEYGMYWVRQAPGKGLEWVSSISERGRLTYYADSVKGRFTISRDNSKNTLYLQMNNLRAEDTAVYYCAKSALSSEGFSRSFDYWGQGTLVTVSS
notes: as for B3

Target: T1, VEGF-165 (human, UniProt P15692-4 27-191)
Test: cell-based or functional assay

T1 sequence (P15692 other isoform, or with tags, fused parts or gaps limits assumed): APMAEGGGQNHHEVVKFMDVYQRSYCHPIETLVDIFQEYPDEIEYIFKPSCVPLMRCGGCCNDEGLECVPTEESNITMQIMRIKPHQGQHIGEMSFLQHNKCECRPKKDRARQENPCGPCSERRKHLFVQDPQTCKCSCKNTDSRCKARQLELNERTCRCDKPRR

Row | Binder | VEGF (bioassay) ND50
1 | B1 | 0.2 nM

Target: T1, VEGF-165
Test: VEGF RBA (ELISA): inhibition of VEGF binding to VEGF receptor (R1 or R2 not specified); IgG-like format

Row | Binder | IC50
2 | B1 | 0.05 nM
3 | B2 | 4.8 nM

Target: T1, VEGF-165
Test: supernatant VEGFR2 RBA (ELISA); + = more than 50% reduction of VEGF binding to VEGF R2/Fc; dAb assayed at 50 nM

Row | Binder | binding result
4 | B3 | binds
5 | B4 | binds
6 | B5 | binds
7 | B6 | binds
8 | B7 | binds
9 | B8 | binds
10 | B9 | binds
11 | B10 | binds
12 | B11 | binds
13 | B12 | binds
